Experimental data: JP2012161321A

Tests used:
[1] = target: Muc1ムチン bearing the CA6 sialoglycotope (DS6 antigen), as expressed by CA6-positive human tumour cell lines (human) (UniProt P15941); assay: cell-based or functional assay
[2] = target: Muc1ムチン bearing the CA6 sialoglycotope (DS6 antigen), as expressed by CA6-positive human tumour cell lines (human) (UniProt P15941); assay: flow cytometry on Caov-3 cells, apparent Kd (Fig. 20)
[3] = target: Muc1ムチン bearing the CA6 sialoglycotope (DS6 antigen), as expressed by CA6-positive human tumour cell lines (human) (UniProt P15941); assay: flow cytometry, direct binding to KB cells, apparent Kd (Fig. 18)
[4] = target: Muc1ムチン bearing the CA6 sialoglycotope (DS6 antigen), as expressed by CA6-positive human tumour cell lines (human) (UniProt P15941); assay: flow cytometry competition; competitor 2 nM biotin-muDS6, streptavidin-DTAF (Fig. 19)

Chain of UniProt P15941 (P15941 24-1255): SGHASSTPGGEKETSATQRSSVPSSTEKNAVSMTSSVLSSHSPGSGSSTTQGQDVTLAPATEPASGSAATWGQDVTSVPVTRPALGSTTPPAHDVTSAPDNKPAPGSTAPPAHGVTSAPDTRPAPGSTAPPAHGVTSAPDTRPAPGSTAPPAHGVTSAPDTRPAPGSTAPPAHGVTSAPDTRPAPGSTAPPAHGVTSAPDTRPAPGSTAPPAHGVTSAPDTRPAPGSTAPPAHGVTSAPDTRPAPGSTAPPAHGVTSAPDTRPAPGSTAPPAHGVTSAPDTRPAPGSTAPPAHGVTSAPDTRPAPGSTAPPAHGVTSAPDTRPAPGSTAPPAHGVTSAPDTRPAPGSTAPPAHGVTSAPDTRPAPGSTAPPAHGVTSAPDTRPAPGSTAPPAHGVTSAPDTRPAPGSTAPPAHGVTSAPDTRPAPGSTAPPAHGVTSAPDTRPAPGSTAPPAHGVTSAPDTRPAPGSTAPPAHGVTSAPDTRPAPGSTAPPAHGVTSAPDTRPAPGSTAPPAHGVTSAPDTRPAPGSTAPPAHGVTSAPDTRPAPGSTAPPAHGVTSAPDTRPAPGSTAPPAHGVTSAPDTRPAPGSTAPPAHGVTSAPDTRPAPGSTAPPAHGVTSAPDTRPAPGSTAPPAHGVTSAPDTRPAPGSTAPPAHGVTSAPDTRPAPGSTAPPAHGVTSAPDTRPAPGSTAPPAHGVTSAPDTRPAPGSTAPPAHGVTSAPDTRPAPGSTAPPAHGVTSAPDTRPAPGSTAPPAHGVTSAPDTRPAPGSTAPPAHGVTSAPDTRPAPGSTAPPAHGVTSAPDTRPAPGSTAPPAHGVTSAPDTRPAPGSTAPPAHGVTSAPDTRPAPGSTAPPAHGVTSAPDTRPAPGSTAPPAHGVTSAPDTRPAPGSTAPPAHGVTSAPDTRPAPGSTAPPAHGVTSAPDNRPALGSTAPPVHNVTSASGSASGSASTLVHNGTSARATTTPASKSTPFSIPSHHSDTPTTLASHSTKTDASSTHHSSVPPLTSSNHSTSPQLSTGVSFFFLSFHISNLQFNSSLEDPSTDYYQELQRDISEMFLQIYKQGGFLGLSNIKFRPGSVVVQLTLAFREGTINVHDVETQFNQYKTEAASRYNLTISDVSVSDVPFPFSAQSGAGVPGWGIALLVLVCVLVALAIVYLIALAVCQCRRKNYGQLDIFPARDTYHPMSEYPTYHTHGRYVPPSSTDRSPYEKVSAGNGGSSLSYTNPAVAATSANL

Row | Binder | IC50, colony formation assay on Caov-3 cells [1] [pM] | Kd [2] [pM] | IC50, in vitro cytotoxicity (MTT) on WISH cells [1] [pM] | Kd [3] [pM] | EC50 [4] [pM]
1 | muDS6−DM1細胞傷害性コンジュゲート (muDS6-SPP-DM1) (antibody, from another filing, V domains shown) VH: QAYLQQSGAELVRSGASVKMSCKASGYTFTSYNMHWVKQTPGQGLEWIGYIYPGNGATNYNQKFKGKATLTADPSSSTAYMQISSLTSEDSAVYFCARGDSVPFAYWGQGTLVTVSA VL: QIVLTQSPAIMSASPGEKVTITCSAHSSVSFMHWFQQKPGTSPKLWIYSTSSLASGVPARFGGSGSGTSYSLTISRMEAEDAATYYCQQRSSFPLTFGAGTKLELKR | 800 | 3900 |  |  | 
2 | huDS6v1.01−SPDB−DM4コンジュゲート (antibody, from another filing, human IgG1, V domains shown) VH: QAQLVQSGAEVVKPGASVKMSCKASGYTFTSYNMHWVKQTPGQGLEWIGYIYPGNGATNYNQKFQGKATLTADTSSSTAYMQISSLTSEDSAVYFCARGDSVPFAYWGQGTLVTVSA VL: EIVLTQSPATMSASPGERVTITCSAHSSVSFMHWFQQKPGTSPKLWIYSTSSLASGVPARFGGSGSGTSYSLTISSMEAEDAATYYCQQRSSFPLTFGAGTKLELKR |  |  | 440 |  | 
3 | ヒト化DS6 1.01型 (humanized DS6 version 1.01) (antibody, from another filing, V domains shown) VH: QAQLVQSGAEVVKPGASVKMSCKASGYTFTSYNMHWVKQTPGQGLEWIGYIYPGNGATNYNQKFQGKATLTADTSSSTAYMQISSLTSEDSAVYFCARGDSVPFAYWGQGTLVTVSA VL: EIVLTQSPATMSASPGERVTITCSAHSSVSFMHWFQQKPGTSPKLWIYSTSSLASGVPARFGGSGSGTSYSLTISSMEAEDAATYYCQQRSSFPLTFGAGTKLELKR |  |  |  | 820 | 3000
4 | ヒト化DS6 1.21型 (humanized DS6 version 1.21) (antibody, from another filing, V domains shown) VH: QAQLVQSGAEVVKPGASVKMSCKASGYTFTSYNMHWVKQTPGQGLEWIGYIYPGNGATNYNQKFQGKATLTADPSSSTAYMQISSLTSEDSAVYFCARGDSVPFAYWGQGTLVTVSA VL: EIVLTQSPATMSASPGERVTITCSAHSSVSFMHWFQQKPGTSPKLWIYSTSSLASGVPARFGGSGSGTSYSLTISSMEAEDAATYYCQQRSSFPLTFGAGTKLELKR |  |  |  | 850 | 1900
5 | DS6のキメラ型 (chimeric DS6, human constant regions and murine variable regions) (antibody, from another filing, V domains shown) VH: QAYLQQSGAELVRSGASVKMSCKASGYTFTSYNMHWVKQTPGQGLEWIGYIYPGNGATNYNQKFKGKATLTADPSSSTAYMQISSLTSEDSAVYFCARGDSVPFAYWGQGTLVTVSA VL: QIVLTQSPAIMSASPGEKVTITCSAHSSVSFMHWFQQKPGTSPKLWIYSTSSLASGVPARFGGSGSGTSYSLTISRMEAEDAATYYCQQRSSFPLTFGAGTKLELKR |  |  |  | 690 | 1700
